Assay results as given in paper PMC12501296, “P4HA2 interacted with ATAD3A to modulate PINK1/parkin-dependent mitophagy and ^125I brachytherapy sensitization in esophageal carcinoma” (Cell Death & Disease, 2025).

Biological target: T1, ATAD3A-HA, in vitro translated (UniProt Q9NVI7-2 1-586)
T1 construct: ATAD3A (ATPase family AAA domain-containing 3A); the truncation map of the ATAD3A-HA plasmids ends at residue 586, which fits the 586-residue isoform; read as C-terminal; also called ATAD3A-HA (pcDNA3.1 vector); source: in vitro translated (TnT quick coupled transcription/translation, Promega), then purified
T1 sequence (looked up): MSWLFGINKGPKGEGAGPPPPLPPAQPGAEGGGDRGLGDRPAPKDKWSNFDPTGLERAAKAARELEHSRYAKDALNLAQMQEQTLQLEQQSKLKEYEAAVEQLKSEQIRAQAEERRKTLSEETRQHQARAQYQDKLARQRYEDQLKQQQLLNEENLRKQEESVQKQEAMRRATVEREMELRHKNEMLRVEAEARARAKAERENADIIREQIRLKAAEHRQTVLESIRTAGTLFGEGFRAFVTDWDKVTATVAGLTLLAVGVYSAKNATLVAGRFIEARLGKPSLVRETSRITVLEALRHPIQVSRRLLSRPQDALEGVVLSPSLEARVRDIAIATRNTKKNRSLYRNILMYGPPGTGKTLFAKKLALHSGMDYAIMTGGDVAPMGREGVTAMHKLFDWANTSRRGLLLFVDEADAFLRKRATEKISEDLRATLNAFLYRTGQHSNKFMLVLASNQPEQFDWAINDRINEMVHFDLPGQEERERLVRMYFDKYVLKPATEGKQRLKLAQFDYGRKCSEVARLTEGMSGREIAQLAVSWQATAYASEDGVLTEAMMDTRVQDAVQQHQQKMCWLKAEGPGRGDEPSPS
Assay: co-IP; P4HA2-FLAG and ATAD3A-HA made by TnT quick coupled transcription/translation (30 °C, 90 min), purified, then co-IP
Settings: both partners purified

B1: P4HA2-FLAG, in vitro translated (natural protein, UniProt O15460 1-535, looked up)
chain: MKLWVSALLMAWFGVLSCVQAEFFTSIGHMTDLIYAEKELVQSLKEYILVEEAKLSKIKSWANKMEALTSKSAADAEGYLAHPVNAYKLVKRLNTDWPALEDLVLQDSAAGFIANLSVQRQFFPTDEDEIGAAKALMRLQDTYRLDPGTISRGELPGTKYQAMLSVDDCFGMGRSAYNEGDYYHTVLWMEQVLKQLDAGEEATTTKSQVLDYLSYAVFQLGDLHRALELTRRLLSLDPSHERAGGNLRYFEQLLEEEREKTLTNQTEAELATPEGIYERPVDYLPERDVYESLCRGEGVKLTPRRQKRLFCRYHHGNRAPQLLIAPFKEEDEWDSPHIVRYYDVMSDEEIERIKEIAKPKLARATVRDPKTGVLTVASYRVSKSSWLEEDDDPVVARVNRRMQHITGLTVKTAELLQVANYGVGGQYEPHFDFSRNDERDTFKHLGTGNRVATFLNYMSDVEAGGATVFPDLGAAIWPKKGTAVFWYNLLRSGEGDYRTRHAACPVLVGCKWVSNKWFHERGQEFLRPCGSTEVD
notes: P4HA2 (Prolyl-4-Hydroxylase Alpha Subunit 2); read as C-terminal; also called P4HA2-FLAG (pcDNA3.1 vector); source: in vitro translated (TnT quick coupled transcription/translation, Promega), then purified
Does B1 bind?
Result: binds
